Assay results reported in patent publication US20220242962A1 (APTEVO RESEARCH AND DEVELOPMENT, published 2022).
Substitutions are numbered along the chain they refer to. In names and notes the source's numbering stands.

T1: Full-length Human OX40 (human, UniProt P43489 29-277)
T1 construct: also called OXF001; human OX40/CHO
T1 sequence: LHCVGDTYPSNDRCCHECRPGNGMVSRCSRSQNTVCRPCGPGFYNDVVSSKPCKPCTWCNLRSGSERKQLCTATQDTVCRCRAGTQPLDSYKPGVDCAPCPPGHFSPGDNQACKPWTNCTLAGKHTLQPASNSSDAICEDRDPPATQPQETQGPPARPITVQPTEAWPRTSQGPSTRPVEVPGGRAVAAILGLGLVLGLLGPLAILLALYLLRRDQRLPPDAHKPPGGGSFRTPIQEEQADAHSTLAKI

T2: Human OX40 ECD-AFH (human)
T2 construct: ECD'; entry includes the C-terminal tags; also called OXF003; Human OX40 ECD-avi-flag-his
T2 chain: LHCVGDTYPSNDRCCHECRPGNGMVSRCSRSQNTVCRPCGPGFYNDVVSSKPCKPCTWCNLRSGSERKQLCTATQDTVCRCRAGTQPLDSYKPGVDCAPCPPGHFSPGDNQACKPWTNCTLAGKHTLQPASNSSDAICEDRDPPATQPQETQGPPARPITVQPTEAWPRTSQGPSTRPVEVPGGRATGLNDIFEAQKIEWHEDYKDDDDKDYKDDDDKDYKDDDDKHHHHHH

T3: Full-length Cyno 4-1BB (cynomolgus monkey, UniProt Q07011 24-255 (human entry))
T3 construct: on Jurkat or CHO cells; also called FOB006; cynomolgus 4-1BB
T3 chain: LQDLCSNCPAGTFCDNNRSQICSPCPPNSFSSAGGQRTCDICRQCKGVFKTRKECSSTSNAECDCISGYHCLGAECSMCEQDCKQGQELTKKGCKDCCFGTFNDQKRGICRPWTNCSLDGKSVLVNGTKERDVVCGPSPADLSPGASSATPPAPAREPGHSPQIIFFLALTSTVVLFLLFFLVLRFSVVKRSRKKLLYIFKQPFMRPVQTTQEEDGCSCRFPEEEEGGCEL

T4: Full-length Cyno OX40 (cynomolgus monkey, UniProt P43489 29-277 (human entry))
T4 construct: on CHO-K1SV cells; also called OXF004; cynomolgus OX40
T4 chain: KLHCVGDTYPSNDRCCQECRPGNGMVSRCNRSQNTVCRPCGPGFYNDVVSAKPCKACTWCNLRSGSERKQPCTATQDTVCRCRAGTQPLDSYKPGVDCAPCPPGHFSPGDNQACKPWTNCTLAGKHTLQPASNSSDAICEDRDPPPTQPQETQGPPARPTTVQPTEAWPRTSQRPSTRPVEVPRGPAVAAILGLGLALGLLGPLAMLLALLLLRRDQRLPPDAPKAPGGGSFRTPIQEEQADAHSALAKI

B1: FXX01104 (bispecific antibody)
chain: EIVMTQSPATLSLSPGERATLSCRASQSVSSYLNWYQQKPGQAPRLLIYYASRRHTGIPARFSGSGSGTDFTLTISSLQPEDFAVYYCQQGYNLPYTFGQGTKVEIKGGGGSGGGGSGGGGSGGGGSEVQLVQSGAEVKKPGASVKVSCKASGYTFTSYWMNWVRQAPGQGLEWMGNIYPSGGSTNYAQKFQGRVTMTVDTSTSTVYMELSSLRSEDTAVYYCASFSDGYYAYAMDYWGQGTLVTVEPKSSDKTHTCPPCPAPPAAAPSVFLFPPKPKDTLMISRTPEVTCVVVDVSHEDPEVKFNWYVDGVEVHNAKTKPREEQYNSTYRVVSVLTVLHQDWLNGKEYKCAVSNKALPAPIEKTISKAKGQPREPQVYTLPPSRDELTKNQVSLTCLVKGFYPSDIAVEWESNGQPENNYKTTPPVLDSDGSFFLYSKLTVDKSRWQQGNVFSCSVMHEALHNHYTQKSLSLSPGGGGSPSSYVLTQPPSVSVAPGQTARITCGGNNIGSKSVNWFQQKPGQAPVLVVYDDSGRPSGIPERFSGSTSGNTATLTISRVEAGDEADYYCQVWDSSSDHVVFGGGTKLTVLGGGGSGGGGSGGGGSGGGGSQVQLVESGGGVVQPGRSLRLSCAASGFTLSYYGMHWVRQAPGKGLEWVAAISHDGSDKYYADSVKGRFTISRDNSKNTLYLQMNSLRAEDTAVYYCSNDQFDPWGQGTLVTVSSR
notes: ADAPTIR anti-4-1BB (LH) x anti-OX40; also called FX01104
B2: FXX01105 (bispecific antibody)
chain: B1 chain with Q498K
notes: ADAPTIR anti-4-1BB (LH) x anti-OX40 with Q17K; also called FX01105
B3: FXX01107 (bispecific antibody)
chain: B1 chain with T688R
notes: ADAPTIR anti-4-1BB (LH) x anti-OX40 with T86R; also called FX01107
B4: FXX01108 (bispecific antibody)
chain: B1 chain with Q498K, T688R
notes: ADAPTIR anti-4-1BB (LH) x anti-OX40 with Q17K and T86R
B5: K322A Fc (other)
chain: EPKSSDKTHTCPPCPAPEAAGAPSVFLFPPKPKDTLMISRTPEVTCVVVDVSHEDPEVKFNWYVDGVEVHNAKTKPREEQYNSTYRVVSVLTVLHQDWLNGKEYKCAVSNKALPAPIEKTISKAKGQPREPQVYTLPPSRDELTKNQVSLTCLVKGFYPSDIAVEWESNGQPENNYKTTPPVLDSDGSFFLYSKLTVDKSRWQQGNVFSCSVMHEALHNHYTQKSLSLSPG
notes: IgG1 Fc with L234A, L235A, G237A, K322A (EU); the listing labels the entry 'K332A'
B6: Null2 Fc (other, human, UniProt P01857-1 99-329, looked up, name in EU numbering)
chain: B5 chain with S5C, E103A, K105A
notes: domain: Fc region

These binders were tested against T1, Full-length Human OX40 (assay: flow cytometry, CHO cells expressing human OX40).
Procedure: (§1) FIGS. 12A-12D show the binding of anti-4-1BB x anti-OX40 constructs, with additional humanization in 4-1BB and altered orientations of binding domains, human (12A) or cynomolgus (12C) 4-1BB-expressing Jurkat cells or human (12B) or cynomolgus (12D) OX40-expressing CHOK1SV cells. Serial dilutions of ADAPTIR™ constructs were incubated with transfected cells and subsequently labelled with a fluorescently-conjugated goat-a-human Fc secondary antibody. […] (See Example 19.)
(§2) Binding studies were performed using the flow cytometry-based staining procedures described above.

Point of comparison: B2, EC50 0.35 nM. Against it:
- B1 — within 1.5-fold, 0.32 nM
- B3 — within 1.5-fold, 0.29 nM
- B4 — within 1.5-fold, 0.32 nM

Point of comparison: B4, “max MFI” value 10300 MFI. Against it:
- B1 — higher, 10400 MFI
- B2 — higher, 10500 MFI
- B3 — the same, 10300 MFI

The binders below were run against T5, Human 4-1BB ECD-AFH (human) (assay: SPR, construct captured, monomeric ECD as analyte).
T5 construct: entry includes the tags; also called FOB003; HUMAN CD137 ECD-AVI-FLAG-HIS
Procedure: (§3) Mouse anti-human IgG (GE, BR-1008-39) at 25 μg/ml in 10 mM sodium acetate pH 5.0 was immobilized at a density of ˜10,000 response units (RU) onto each flow cell of a CM5 research-grade sensor chip (GE) by standard amine coupling chemistry. Each binding protein at approximately 100 nM in HBS-EP+ with 0.2% BSA buffer was captured in a flow cell with the immobilized anti-human IgG at a flow rate of 10 μL/min for 20 seconds, leaving one flow cell surface unmodified as the reference. Using a single-cycle kinetics mode, five different concentrations of ECD were sequentially injected through each flow cell at 30 μL/min for 300 seconds followed by a 600 second dissociation period. Regeneration was achieved by injection of 3 M MgCl₂ at a flow rate of 30 μL/min for 30 seconds followed by HBS-EP+ with 0.2% BSA buffer stabilization for 1 min.
(§4) Sensorgrams obtained from kinetic SPR measurements were analyzed by the double subtraction method. The signal from the reference flow cell was subtracted from the analyte binding response obtained from flow cells with immobilized or captured ligands. Buffer reference responses were then averaged from multiple injections. The averaged buffer reference responses were then subtracted from analyte binding responses, and the final double-referenced data were analyzed with Biacore T200 Evaluation software (2.0, GE), globally fitting data to derive kinetic parameters. All sensorgrams were fitted using a simple one-to-one binding model.
(§5) Protein was produced by transient expression, purified by ProA chromatography and prep SEC.

T5 sequence (chain, as listed by the source limits assumed): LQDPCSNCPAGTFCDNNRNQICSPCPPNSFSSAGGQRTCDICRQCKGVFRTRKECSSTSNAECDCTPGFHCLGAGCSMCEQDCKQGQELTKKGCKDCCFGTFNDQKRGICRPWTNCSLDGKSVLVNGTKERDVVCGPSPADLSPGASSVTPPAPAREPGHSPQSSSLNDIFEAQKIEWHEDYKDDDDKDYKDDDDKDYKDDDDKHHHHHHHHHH

Point of comparison: B4, Kd 18 nM. Against it:
- B1 — within 1.5-fold, 17 nM
- B2 — within 1.5-fold, 19 nM
- B3 — the same, 18 nM

Point of comparison: B2, koff 0.0055 s⁻¹. Against it:
- B1 — the same, 0.0055 s⁻¹
- B3 — within 1.5-fold, 0.0056 s⁻¹
- B4 — the same, 0.0055 s⁻¹

Point of comparison: B2, kon 290000 M⁻¹ s⁻¹. Against it:
- B1 — within 1.5-fold, 320000 M⁻¹ s⁻¹
- B3 — within 1.5-fold, 310000 M⁻¹ s⁻¹
- B4 — within 1.5-fold, 310000 M⁻¹ s⁻¹

Molecular target: T2, Human OX40 ECD-AFH
Assay: SPR, construct captured, monomeric ECD as analyte
Procedure: as §3, §4, §5

Point of comparison: B2, Kd 0.4 nM. Against it:
- B1 — within 1.5-fold, 0.5 nM
- B3 — within 1.5-fold, 0.5 nM
- B4 — 2-fold higher, 0.8 nM

Point of comparison: B3, koff 0.00029 s⁻¹. Against it:
- B1 — within 1.5-fold, 0.00032 s⁻¹
- B2 — within 1.5-fold, 0.00027 s⁻¹
- B4 — within 1.5-fold, 0.00039 s⁻¹

Point of comparison: B2, kon 710000 M⁻¹ s⁻¹. Against it:
- B1 — the same, 710000 M⁻¹ s⁻¹
- B3 — within 1.5-fold, 630000 M⁻¹ s⁻¹
- B4 — within 1.5-fold, 480000 M⁻¹ s⁻¹

The binders below were run against T1, Full-length Human OX40 (assay: cell-based or functional assay).

Point of comparison: B1, “OX40 Reporter Assay EC50” value 0.013 nM. Against it:
- B2 — within 1.5-fold, 0.01 nM
- B3 — the same, 0.013 nM
- B4 — the same, 0.013 nM

Point of comparison: B3, “OX40 Reporter Assay Max induction” value 2.14e+06. Against it:
- B1 — lower, 1.99e+06
- B2 — lower, 1.97e+06
- B4 — lower, 2.07e+06

What follows are binders tested against T6, Full-length Human 4-1BB (human, UniProt Q07011 24-255) (assay: cell-based or functional assay).

Point of comparison: B4, “4-1BB Reporter Assay EC50” value 0.013 nM. Against it:
- B1 — within 1.5-fold, 0.011 nM
- B2 — within 1.5-fold, 0.014 nM
- B3 — within 1.5-fold, 0.016 nM

Point of comparison: B1, “4-1BB Reporter Assay Max induction” value 6.11e+06. Against it:
- B2 — higher, 6.58e+06
- B3 — higher, 6.85e+06
- B4 — higher, 6.61e+06

Molecular target: T3, Full-length Cyno 4-1BB
Assay: flow cytometry on Jurkat cells transfected with cynomolgus 4-1BB, goat anti-human Fc secondary antibody, MFI (Mean)
Procedure: as §1, §2

Point of comparison: B1, “EC50 (read off the curve)” value ~0.3 nM. Against it:
- B2 — the same, ~0.3 nM
- B3 — the same, ~0.3 nM
- B4 — the same, ~0.3 nM

Molecular target: T4, Full-length Cyno OX40
Assay: flow cytometry on CHOK1SV cells transfected with cynomolgus OX40, goat anti-human Fc secondary antibody, MFI (Mean)
Procedure: as §1, §2

Point of comparison: B2, “EC50 (read off the curve)” value ~0.8 nM. Against it:
- B1 — the same, ~0.8 nM
- B3 — the same, ~0.8 nM
- B4 — the same, ~0.8 nM

The binders below were run against T7, Recombinant FcRn/b2M protein (human, UniProt P55899 24-297; P61769 21-119, limits assumed) (assay: SPR pH 6.0, FcRn/b2M immobilized, two-state reaction model).
T7 construct: also called hFcRn/b2M; neonatal Fc receptor
Procedure: Recombinant FcRn/b2M protein was generated via transient transfection of HEK-293 cells with a bi-cistronic vector containing the genes for both FcRn and […]. The complex was purified using IMAC chromatography and subsequently buffer exchanged into IMAC elution buffer after verifying purity of the IMAC eluate by analytical SEC. hFcRn/b2M at 10 μg/ml in 10 mM sodium acetate (pH 4.5) was immobilized on a CM5 chip by direct amine coupling chemistry to a level of ˜600 RU. A reference flow cell was left blank.
Different concentrations of the Fc variant protein (5-80 nM by 2-fold dilutions in pH 6.0 running buffer) including running buffer as blank were injected in randomized order at 30 μL/min for 180 seconds followed by a 120 second dissociation period.
as §4, with “cell” for “cells”, “immobilized” for “immobilized or captured”, “was” for “responses were then averaged from multiple injections. The averaged buffer reference responses were then”, “two-state reaction model, as described in Weirong Wang et al, DrugMetab Dispos.: 39(9): 1469-77 (2011).” for “a simple one-to-one binding model.”

T7 sequence (P55899 24-297 limits assumed, chain 1 of 2): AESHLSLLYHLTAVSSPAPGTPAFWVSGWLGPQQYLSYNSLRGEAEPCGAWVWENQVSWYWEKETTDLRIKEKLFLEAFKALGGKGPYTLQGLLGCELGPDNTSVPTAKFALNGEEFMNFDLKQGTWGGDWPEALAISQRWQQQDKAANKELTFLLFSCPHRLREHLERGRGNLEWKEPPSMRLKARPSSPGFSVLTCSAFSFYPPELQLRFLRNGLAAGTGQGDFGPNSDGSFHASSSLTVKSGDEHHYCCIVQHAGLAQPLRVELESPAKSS
T7 sequence (P61769 21-119 limits assumed, chain 2 of 2): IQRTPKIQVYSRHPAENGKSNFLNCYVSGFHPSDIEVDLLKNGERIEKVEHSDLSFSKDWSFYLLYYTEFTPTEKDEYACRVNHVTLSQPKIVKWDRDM

Point of comparison: B6, Kd 33 nM. Against it:
- B5 — 1.5-fold lower, 22 nM

These binders were tested against T6, Full-length Human 4-1BB (assay: flow cytometry, Jurkat cells expressing human 4-1BB).
Procedure: as §1, §2

Point of comparison: B2, EC50 0.33 nM. Against it:
- B1 — within 1.5-fold, 0.31 nM
- B3 — within 1.5-fold, 0.26 nM
- B4 — within 1.5-fold, 0.29 nM

Point of comparison: B2, “max MFI” value 4940 MFI. Against it:
- B1 — lower, 4860 MFI
- B3 — lower, 4700 MFI
- B4 — lower, 4770 MFI
